Assay results from the supplement of paper PMC9170038.

Tested on: MS2 coat protein
Assay: apparent KD of MS2 coat protein; designed switch direction (-1 OFF switch, 1 ON switch): 1; higher = weaker reporter binding
In short: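 On Illumina chips, designed RNA switches with common flanks were made by stalled E. coli RNA polymerase. Titrations with SNAP-549-labelled MS2 coat protein, doubling from 0.7 or 1.5 nM to 3 µM, were done with no input, with 200 uM small-molecule ligand, or with an oligonucleotide input. Apparent KD is the median per design over clusters, from curve fits of normalised cluster fluorescence.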

[1] = input ligand: microRNA oligo, concentration not stated
[2] = Eterna round: R95, input ligand: microRNA oligo, concentration not stated
[3] = Eterna round: R95, input ligand: FMN 200 uM
[4] = Eterna round: R95, input ligand: none

| Sequence | apparent KD of MS2 coat protein (input ligand: FMN 200 uM) | apparent KD of MS2 coat protein [1] | apparent KD of MS2 coat protein (input ligand: none) | apparent KD of MS2 coat protein [2] | apparent KD of MS2 coat protein [3] | apparent KD of MS2 coat protein [4] |
| --- | --- | --- | --- | --- | --- | --- |
| GCUCGAAUCAAAACCAACAUGAGGAUCACCCAUGUAUGUUGGUAGGAUAUCGUUUGUAAAACAAACGAGAAGGGCCAAACGAGC [SameState NG3 #4] (Eterna round: R96, puzzle: Same State NG 3) | 53 nM | 93.3 nM | 118 nM |  |  |  |
| UCAAUCAUGUAAGGAUAUGCAGCCGAAACGGCUGCAGAAGGUACUAUAAUUACAUGAGGAUCACCCAUGUUAUAAAAUUAAAAU [Mat - Same State NG 1 - JL mod - D69] (Eterna round: R96, puzzle: Same State NG 1) | 35.3 nM | 101 nM | 130 nM |  |  |  |
| UUGAUGAACUGAGGAUAUCGAGUCGUCUCAUUACACAUGAGGAUCACCCAUGUGGGUUGUGGUAUCGAGAAGGCAGAAUACUCA [JR_SSNG2_Sub033] (Eterna round: R96, puzzle: Same State NG 2) | 25.1 nM | 28.7 nM | 32.8 nM |  |  |  |
| GGAGGACAUGAGGAUCACCCAUGUGGAUGAUCGCUAGGAUAUGCGUGCGGGAGGAGUGGUGCAGAAGGAGUGGGAU [JR_SS1_Sub049] (puzzle: Same State 1) |  |  |  | 188 nM |  |  |
| AUAUGAGGAGCAGGAUAUGCGGAGAAGAAAGAAGCAGAAGGGCUCAUGGGACGACAUGAGGAUCACCCAUGUACUCCGCGAUGA [AK SSNG1-V2-5] (Eterna round: R96, puzzle: Same State NG 1) | 103 nM | 520 nM | 1350 nM |  |  |  |
| GUCCAACAUGAGGAUCACCCAUGUCGGGCGUGCACAGGAUAUCGCGCCGGGAAAGCCCAGCGAGAAGGGUGAUCGA [Atveinla] (puzzle: Same State 1) |  |  |  | 57.8 nM | 197 nM | 50.9 nM |
| UGAAUGGUGAUAGGAUAUACAUGAGGAAUCCUCGUAGAAGGAUCAUGACAUGAGGAUCACCCAUGUAGCGCUCAGAAGAGCGCA [Mat - Same State NG 1 - JL mod - D53] (Eterna round: R96, puzzle: Same State NG 1) | 129 nM | 42.4 nM | 83.9 nM |  |  |  |
| GCUUGCCGCACAGGAUAUGGGUGCCUGUACAUGAGGAUCACCCAUGUUAAGGGACGGAUUACGAACCAGAAGGGUGAGGCGGGC [Lereatle] (Eterna round: R96, puzzle: Same State NG 2) | 59.4 nM | 119 nM | 473 nM |  |  |  |
| UUAUAACAUGAGGAUCACCCAUGUCAACAAAGUCGAGGAUAUGGGCAAUUAUUAUUAGAACCAGAAGGCGAAAAUU [Mat - Same State 1 - Mod of UCT - D29] (puzzle: Same State 1) |  |  |  | 227 nM | 52.1 nM | 587 nM |
| GUUAUACAUGAGGAUCACCCAUGUCAAUGUAGUCGAGGAUAUGGGCAGCUGUGAGGCGUACUAGAAGGCGAAGAGG [JL-ss1-3.10 ViennaUCT mod] (puzzle: Same State 1) |  |  |  | 198 nM | 86.1 nM | 170 nM |
| UCUUGGUUUUUGCUCGUUUUUUGUGUUGAACAUGAGGAUCACCCAUGUAUUGUACGGUCCGGUUUAAUAGUGGUCCG [JMF 14] (puzzle: Sensor for hsa-mir-208a) |  |  |  | 15.4 nM | 27.8 nM | 28.3 nM |
| GGAGCUGUUAUAGGAUAUCCCGCUCAUUACGCGGGAGAAGGGUGACGCUCACAUGAGGAUCACCCAUGUGGCGUUCCAAAAUAA [Reesti] (Eterna round: R96, puzzle: Same State NG 1) | 8.43 nM | 7.1 nM | 12.6 nM |  |  |  |
| UACAAUCUAUCUGAGGAUAUCAUGAAUUUAACAUGAGGAUCACCCAUGUGCAGGAAAACUGCAUAUGAGAAGGCAGAUAGAUUGU [salish99_ss2_r3_061] (puzzle: Same State 2) |  |  |  | 28 nM | 71.3 nM | 94.1 nM |
| AGUCCAGCCUGAGCUGGACAAAAGCAUGUACAUGAGGAUCACCCAUGUUCAUGUACAAGCUUUUUGCUCGUCUUUAA [salish99_208a_r3_096x] (puzzle: Sensor for hsa-mir-208a) |  |  |  | 14.5 nM | 658 nM | 985 nM |
| UCUUGGUUUUUGCUCGUUUUUUGUGUUGAACAUGAGGAUCACCCAUGUAUUGUACGAUCCAGUUAGAUGGUGGUUUG [JR_SHM208A_Sub044] (puzzle: Sensor for hsa-mir-208a) |  |  |  | 70.1 nM | 63.1 nM | 91.9 nM |
| UUCUUACAUGAGGAUCACCCAUGUGUUGUCGUGGGAGGAUAUCCUGGUUCGGUGGCGUUGGGAGAAGGCCUAUGUU [× ×•×ª×• ×ž×“×™× ×” × ×—×ª-19] (puzzle: Same State 1) |  |  |  | 134 nM | 476 nM | 376 nM |
